B1: HAdV-D37 fiber knob (FK) (domain or fragment)
chain: GYLVAWNPKYDTRTLWTTPDTSPNCTIAQDKDSKLTLVLTKCGSQILANVSLIVVAGKYHIINNKTNPKIKSFTIKLLFNKNGVLLDNSNLGKAYWNFRSGNSNVSTAYEKAIGFMPNLVAYPKPSNSKKYARDIVYGTIYLGGKPDQPAVIKTTFNQETGCEYSITFNFSWSKTYENVEFETTSFTFSYIAQE
notes: fiber protein of human adenovirus type 37 (HAdV-D37), knob domain; checked against GenBank ABK59080.1 (HAdV-D37 fiber); also called HAdV-D37 FK; HAdV-D37 wt FK; source: construct, expression and purification as described previously [100]

Tests used:
[1] = biological target: HAdV-D36 fiber knob domain (FK) (Human adenovirus type 36 (HAdV-D36), strain 275); assay: crystal structure; fiber knobs crystallised alone or co-crystallised with 10 mM carbohydrate; HAdV-D36 FK: hanging drop, PEG 3,350, NH4Ac, 0.1 M Bis-Tris pH 5.5, 4 C
[2] = biological target: the molecule itself; assay: as above

| Molecule | stoichiometry N [1] | stoichiometry N [2] |
| --- | --- | --- |
| HAdV-D36 fiber knob domain (FK) (domain or fragment) | 3 | – |
| B1 | – | 3 |
